Assay results from paper PMC5932363.

Biological target: Proteinase 3 (PR3), purified (UniProt P24158)
Assay: SPR; BIAcore 3000; PR3 immobilised on a CM5 chip by amine coupling; C1q, gC1q or cC1q as soluble analytes; 50 mM Tris, 150 mM NaCl, 2 mM Ca2+, 0.005% surfactant P20, pH 7.4; flow 20 µl/min; global fit to a 1:1 Langmuir model; apparent KD from koff/kon

Proteinase 3 (PR3), purified, sequence (P24158 28-248): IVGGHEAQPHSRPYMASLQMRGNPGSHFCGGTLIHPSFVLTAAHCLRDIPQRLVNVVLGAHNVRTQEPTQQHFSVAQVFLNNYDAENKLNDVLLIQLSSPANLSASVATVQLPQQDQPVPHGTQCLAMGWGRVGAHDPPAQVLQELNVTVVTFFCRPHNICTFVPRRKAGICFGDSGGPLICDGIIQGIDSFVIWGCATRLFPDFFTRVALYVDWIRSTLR

Kd: 400 nM | koff: 0.0072 s⁻¹ | kon: 18000 M⁻¹ s⁻¹
Substance: globular region of C1q (gC1q) (domain or fragment)
